{"source": "the supplement of paper PMC11316812", "key": {"[1]": {"test_system": "MCF7", "experiment": "percentage of EdU-negative (G0-arrested) nuclei per well, 72 h; higher = more G0 arrest", "conditions": "reference: sequence is the full UniProt precursor, the tested protein was the secreted form or ectodomain"}, "[2]": {"test_system": "hTERT-HMEC", "experiment": "percentage of EdU-negative (G0-arrested) nuclei per well, 72 h; higher = more G0 arrest", "conditions": "reference: sequence is the full UniProt precursor, the tested protein was the secreted form or ectodomain"}, "[3]": {"conditions": "protein concentration 0.0075 µM"}, "[4]": {"conditions": "protein concentration 0.00925 µM"}, "[5]": {"conditions": "protein concentration 0.0925 µM"}, "[6]": {"conditions": "protein concentration 0.0225 µM"}}, "note": "± gives the standard deviation of the averaged measurements.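 Further: secreted proteins added to cultured cells, EdU pulse at the end, nuclei found by Hoechst imaging, EdU status from nuclear versus surrounding ring intensity ratio, PBS as neutral control.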"}
{"sequence": "MAFPPRRRLRLGPRGLPLLLSGLLLPLCRAFNLDVDSPAEYSGPEGSYFGFAVDFFVPSASSRMFLLVGAPKANTTQPGIVEGGQVLKCDWSSTRRCQPIEFDATGNRDYAKDDPLEFKSHQWFGASVRSKQDKILACAPLYHWRTEMKQEREPVGTCFLQDGTKTVEYAPCRSQDIDADGQGFCQGGFSIDFTKADRVLLGGPGSFYWQGQLISDQVAEIVSKYDPNVYSIKYNNQLATRTAQAIFDDSYLGYSVAVGDFNGDGIDDFVSGVPRAARTLGMVYIYDGKNMSSLYNFTGEQMAAYFGFSVAATDINGDDYADVFIGAPLFMDRGSDGKLQEVGQVSVSLQRASGDFQTTKLNGFEVFARFGSAIAPLGDLDQDGFNDIAIAAPYGGEDKKGIVYIFNGRSTGLNAVPSQILEGQWAARSMPPSFGYSMKGATDIDKNGYPDLIVGAFGVDRAILYRARPVITVNAGLEVYPSILNQDNKTCSLPGTALKVSCFNVRFCLKADGKGVLPRKLNFQVELLLDKLKQKGAIRRALFLYSRSPSHSKNMTISRGGLMQCEELIAYLRDESEFRDKLTPITIFMEYRLDYRTAADTTGLQPILNQFTPANISRQAHILLDCGEDNVCKPKLEVSVDSDQKKIYIGDDNPLTLIVKAQNQGEGAYEAELIVSIPLQADFIGVVRNNEALARLSCAFKTENQTRQVVCDLGNPMKAGTQLLAGLRFSVHQQSEMDTSVKFDLQIQSSNLFDKVSPVVSHKVDLAVLAAVEIRGVSSPDHVFLPIPNWEHKENPETEEDVGPVVQHIYELRNNGPSSFSKAMLHLQWPYKYNNNTLLYILHYDIDGPMNCTSDMEINPLRIKISSLQTTEKNDTVAGQGERDHLITKRDLALSEGDIHTLGCGVAQCLKIVCQVGRLDRGKSAILYVKSLLWTETFMNKENQNHSYSLKSSASFNVIEFPYKNLPIEDITNSTLVTTNVTWGIQPAPMPVPVWVIILAVLAGLLLLAVLVFVMYRMGFFKRVRPPQEEQEREQLQPHENGEGNSET", "values": [{"measurement": "percentage of EdU-negative", "setting": "[1]; [3]", "result": "25.7 ± 3.1", "unit": "%"}, {"measurement": "percentage of EdU-negative", "setting": "[1]; protein concentration 0.075 µM", "result": "28.8 ± 2", "unit": "%"}, {"measurement": "percentage of EdU-negative", "setting": "[2]; [3]", "result": "5.23 ± 0.5", "unit": "%"}, {"measurement": "percentage of EdU-negative", "setting": "[2]; protein concentration 0.075 µM", "result": "7.03 ± 1", "unit": "%"}]}
{"sequence": "MPPGPWESCFWVGGLILWLSVGSSGDAPPTPQPKCADFQSANLFEGTDLKVQFLLFVPSNPSCGQLVEGSSDLQNSGFNATLGTKLIIHGFRVLGTKPSWIDTFIRTLLRATNANVIAVDWIYGSTGVYFSAVKNVIKLSLEISLFLNKLLVLGVSESSIHIIGVSLGAHVGGMVGQLFGGQLGQITGLDPAGPEYTRASVEERLDAGDALFVEAIHTDTDNLGIRIPVGHVDYFVNGGQDQPGCPTFFYAGYSYLICDHMRAVHLYISALENSCPLMAFPCASYKAFLAGRCLDCFNPFLLSCPRIGLVEQGGVKIEPLPKEVKVYLLTTSSAPYCMHHSLVEFHLKELRNKDTNIEVTFLSSNITSSSKITIPKQQRYGKGIIAHATPQCQINQVKFKFQSSNRVWKKDRTTIIGKFCTALLPVNDREKMVCLPEPVNLQASVTVSCDLKIACV [Q53H76]", "values": [{"measurement": "percentage of EdU-negative", "setting": "[1]; [4]", "result": "24.3 ± 1.9", "unit": "%"}, {"measurement": "percentage of EdU-negative", "setting": "[1]; [5]", "result": "28.4 ± 1.4", "unit": "%"}, {"measurement": "percentage of EdU-negative", "setting": "[2]; [4]", "result": "4.11 ± 0.46", "unit": "%"}, {"measurement": "percentage of EdU-negative", "setting": "[2]; [5]", "result": "6.06 ± 0.41", "unit": "%"}]}
{"sequence": "MATMVPSVLWPRACWTLLVCCLLTPGVQGQEFLLRVEPQNPVLSAGGSLFVNCSTDCPSSEKIALETSLSKELVASGMGWAAFNLSNVTGNSRILCSVYCNGSQITGSSNITVYRLPERVELAPLPPWQPVGQNFTLRCQVEDGSPRTSLTVVLLRWEEELSRQPAVEEPAEVTATVLASRDDHGAPFSCRTELDMQPQGLGLFVNTSAPRQLRTFVLPVTPPRLVAPRFLEVETSWPVDCTLDGLFPASEAQVYLALGDQMLNATVMNHGDTLTATATATARADQEGAREIVCNVTLGGERREARENLTVFSFLGPIVNLSEPTAHEGSTVTVSCMAGARVQVTLDGVPAAAPGQPAQLQLNATESDDGRSFFCSATLEVDGEFLHRNSSVQLRVLYGPKIDRATCPQHLKWKDKTRHVLQCQARGNPYPELRCLKEGSSREVPVGIPFFVNVTHNGTYQCQASSSRGKYTLVVVMDIEAGSSHFVPVFVAVLLTLGVVTIVLALMYVFREHQRSGSYHVREESTYLPLTSMQPTEAMGEEPSRAE", "values": [{"measurement": "percentage of EdU-negative", "setting": "[1]; [6]", "result": "25.2 ± 0.75", "unit": "%"}, {"measurement": "percentage of EdU-negative", "setting": "[1]; protein concentration 0.225 µM", "result": "28 ± 1.2", "unit": "%"}, {"measurement": "percentage of EdU-negative", "setting": "[2]; [6]", "result": "4.98 ± 0.59", "unit": "%"}, {"measurement": "percentage of EdU-negative", "setting": "[2]; protein concentration 0.225 µM", "result": "16.4 ± 1.8", "unit": "%"}]}
